Assay results from article doi:10.1101/438903.

Biological target: DY-547P1 labelled NDC80-C Bonsai (ΔHec1 1-80)
Assay: MST

Kd: 300 nM
B1: MPS1^WT (1xNTE, residues 1-808), recombinant from insect cells (enzyme)
chain: MESEDLSGRELTIDSIMNKVRDIKNKFKNEDLTDELSLNKISADTTDNSGTVNQIMMMANNPEDWLSLLLKLEKNSVPLSDALLNKLIGRYSQAIEALPPDKYGQNESFARIQVRFAELKAIQEPDDARDYFQMARANCKKFAFVHISFAQFELSQGNVKKSKQLLQKAVERGAVPLEMLEIALRNLNLQKKQLLSEEEKKNLSASTVLTAQESFSGSLGHLQNRNNSCDSRGQTTKARFLYGENMPPQDAEIGYRNSLRQTNKTKQSCPFGRVPVNLLNSPDCDVKTDDSVVPCFMKRQTSRSECRDLVVPGSKPSGNDSCELRNLKSVQNSHFKEPLVSDEKSSELIITDSITLKNKTESSLLAKLEETKEYQEPEVPESNQKQWQSKRKSECINQNPAASSNHWQIPELARKVNTEQKHTTFEQPVFSVSKQSPPISTSKWFDPKSICKTPSSNTLDDYMSCFRTPVVKNDFPPACQLSTPYGQPACFQQQQHQILATPLQNLQVLASSSANECISVKGRIYSILKQIGSGGSSKVFQVLNEKKQIYAIKYVNLEEADNQTLDSYRNEIAYLNKLQQHSDKIIRLYDYEITDQYIYMVMECGNIDLNSWLKKKKSIDPWERKSYWKNMLEAVHTIHQHGIVHSDLKPANFLIVDGMLKLIDFGIANQMQPDTTSVVKDSQVGTVNYMPPEAIKDMSSSRENGKSKSKISPKSDVWSLGCILYYMTYGKTPFQQIINQISKLHAIIDPNHEIEFPDIPEKDLQDVLKCCLKRDPKQRISIPELLAHPYVQIQTHPVNQMAKGTTEE
